In article PMC2993495 (Molecular cell, 2009):
Where “and” joins values, the source holds several entries; their conditions need not be identical. Equal values may be shown once.

T1: Mms21, full length (crystallised complex) (budding yeast (S. cerevisiae), UniProt P38632 1-267)
T1 sequence (looked up): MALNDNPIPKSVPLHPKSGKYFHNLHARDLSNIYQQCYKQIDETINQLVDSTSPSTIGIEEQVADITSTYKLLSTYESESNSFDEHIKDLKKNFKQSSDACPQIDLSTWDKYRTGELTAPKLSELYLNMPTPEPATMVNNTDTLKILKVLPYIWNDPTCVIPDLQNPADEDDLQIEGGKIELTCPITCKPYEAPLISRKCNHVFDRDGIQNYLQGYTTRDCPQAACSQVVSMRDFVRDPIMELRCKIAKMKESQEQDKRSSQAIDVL

T2: Smc5-TAF (budding yeast (S. cerevisiae), UniProt Q08204 1-1093)
T2 sequence (looked up): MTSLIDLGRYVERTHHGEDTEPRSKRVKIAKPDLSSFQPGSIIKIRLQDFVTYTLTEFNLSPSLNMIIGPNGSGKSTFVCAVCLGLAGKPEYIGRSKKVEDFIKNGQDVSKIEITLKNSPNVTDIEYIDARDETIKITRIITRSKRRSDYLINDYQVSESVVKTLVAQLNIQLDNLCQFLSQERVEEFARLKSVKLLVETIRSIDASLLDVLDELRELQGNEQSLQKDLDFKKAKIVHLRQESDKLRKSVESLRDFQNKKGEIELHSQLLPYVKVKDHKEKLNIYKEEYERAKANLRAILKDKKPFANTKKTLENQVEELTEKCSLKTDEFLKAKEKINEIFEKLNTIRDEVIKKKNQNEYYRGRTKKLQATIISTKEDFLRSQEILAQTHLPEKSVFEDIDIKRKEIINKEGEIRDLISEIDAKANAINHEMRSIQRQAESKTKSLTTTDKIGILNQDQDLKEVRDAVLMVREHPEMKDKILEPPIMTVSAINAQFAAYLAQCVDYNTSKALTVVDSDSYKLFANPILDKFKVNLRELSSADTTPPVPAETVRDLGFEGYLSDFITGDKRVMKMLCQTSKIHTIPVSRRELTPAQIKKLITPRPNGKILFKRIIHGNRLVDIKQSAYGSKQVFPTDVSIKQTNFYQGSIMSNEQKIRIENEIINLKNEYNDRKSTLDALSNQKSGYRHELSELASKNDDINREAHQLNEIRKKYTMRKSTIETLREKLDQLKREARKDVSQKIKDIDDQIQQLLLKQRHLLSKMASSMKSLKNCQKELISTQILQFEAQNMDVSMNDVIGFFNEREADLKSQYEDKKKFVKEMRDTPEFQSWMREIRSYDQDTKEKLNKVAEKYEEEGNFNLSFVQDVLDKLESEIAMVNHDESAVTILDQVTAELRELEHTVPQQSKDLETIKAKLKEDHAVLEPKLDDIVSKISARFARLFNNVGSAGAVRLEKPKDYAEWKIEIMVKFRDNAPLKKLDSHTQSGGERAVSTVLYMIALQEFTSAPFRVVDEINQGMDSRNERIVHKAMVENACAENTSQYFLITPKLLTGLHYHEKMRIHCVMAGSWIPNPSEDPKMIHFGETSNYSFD


Assays:
[1] = target: His6-tagged wild-type Mms21 (budding yeast (S. cerevisiae)) (UniProt P38632); assay: ITC
[2] = target: Mms21-M1, His6-tagged (budding yeast (S. cerevisiae)) (UniProt P38632); assay: pull-down
[3] = target: T1, Mms21, full length (crystallised …); assay: crystal structure
Smc5-TAF = target: T2, Smc5-TAF; assay: co-IP

Row | Molecule | Smc5 binding, percent of wild-type (Smc5-TAF) | further results
1 | GST-Smc5-arm (from UniProt Q08204 302-369; Q08204 733-813) (domain or fragment) |  | dH [1]: -18.2 kcal/mol and -22 kcal/mol; Smc5 binding, percent of wild-type (% of wild-type) [2]: 84
2 | Smc5 arm chimera (Asp302-Leu369, Gly-Ser-Gly-Ser linker, Lys733-Gln813), 6xHis-tagged (domain or fragment, budding yeast (S. cerevisiae)) DKKPFANTKKTLENQVEELTEKCSLKTDEFLKAKEKINEIFEKLNTIRDEVIKKKNQNEYYRGRTKKLGSGSKREARKDVSQKIKDIDDQIQQLLLKQRHLLSKMASSMKSLKNCQKELISTQILQFEAQNMDVSMNDVIGFFNEREADLKSQ |  | binding result [3]: binds
3 | mms21-M1-3HA (natural protein, budding yeast (S. cerevisiae)) MALNDNPIAKSAPAAPKSGKYFHNLHARDLSNIYQQCYKQIDETINQLVDSTSPSTIGIEEQVADITSTYKLLSTYESESNSFDEHIKDLKKNFKQSSDACPQIDLSTWDKYRTGELTAPKLSELYLNMPTPEPATMVNNTDTLKILKVLPYIWNDPTCVIPDLQNPADEDDLQIEGGKIELTCPITCKPYEAPLISRKCNHVFDRDGIQNYLQGYTTRDCPQAACSQVVSMRDFVRDPIMELRCKIAKMKESQEQDKRSSQAIDVL | 5 % of wild-type | 
4 | mms21-M3-3HA (natural protein, budding yeast (S. cerevisiae)) MALNDNPIPKSVPLHPKSGKYFHNLHARDLSNAAQQAYKQIDETINQLVDSTSPSTIGIEEQVADITSTYKLLSTYESESNSFDEHIKDLKKNFKQSSDACPQIDLSTWDKYRTGELTAPKLSELYLNMPTPEPATMVNNTDTLKILKVLPYIWNDPTCVIPDLQNPADEDDLQIEGGKIELTCPITCKPYEAPLISRKCNHVFDRDGIQNYLQGYTTRDCPQAACSQVVSMRDFVRDPIMELRCKIAKMKESQEQDKRSSQAIDVL | 30 % of wild-type | 
5 | mms21-M5-3HA (natural protein, budding yeast (S. cerevisiae)) MALNDNPIPKSVPLHPKSGKYFHNLHARDLSNIYQQCYKQIDETINQLVDSTSPSTIGIEEQVADITSTYKLLSTAESAANSADEHIKDLKKNFKQSSDACPQIDLSTWDKYRTGELTAPKLSELYLNMPTPEPATMVNNTDTLKILKVLPYIWNDPTCVIPDLQNPADEDDLQIEGGKIELTCPITCKPYEAPLISRKCNHVFDRDGIQNYLQGYTTRDCPQAACSQVVSMRDFVRDPIMELRCKIAKMKESQEQDKRSSQAIDVL | 66 % of wild-type | 
